Assay results: patent US20250237662A1

Columns and labels:
[1] = biological target: humanized development candidate monoclonal antibody IgG4 (hIgG4); assay: Gyrolab, mAb as capture, hIgG4 8 ng/ml
[2] = biological target: humanized development candidate monoclonal antibody IgG4 (hIgG4); assay: Gyrolab, mAb as capture, hIgG4 5000 ng/ml
[3] = biological target: humanized development candidate monoclonal antibody IgG4 (hIgG4); assay: Gyrolab, mAb as capture, hIgG4 40 ng/ml
[4] = biological target: humanized development candidate monoclonal antibody IgG4 (hIgG4); assay: Gyrolab, mAb as capture, hIgG4 1.6 ng/ml
[5] = biological target: humanized development candidate monoclonal antibody IgG4 (hIgG4); assay: Gyrolab, mAb as capture, hIgG4 1000 ng/ml
[6] = biological target: humanized development candidate monoclonal antibody IgG4 (hIgG4); assay: Gyrolab, mAb as capture, hIgG4 200 ng/ml
[7] = biological target: humanized development candidate monoclonal antibody IgG4 (hIgG4); assay: Gyrolab, mAb as capture, hIgG4 0.32 ng/ml
[8] = biological target: humanized development candidate monoclonal antibody IgG4 (hIgG4); assay: SPR (Biacore T200), under the same conditions as the rabbit clones, antigen 80-0 nM, 1:1 fit
[9] = biological target: humanized therapeutic monoclonal antibody IgG1 (hIgG1); assay: as above
[10] = biological target: drug: a monoclonal antibody of human IgG4 isotype (PandA assay); assay: PandA assay (PEG precipitation, acid dissociation, MSD plate, sulfo-TAG-drug), mAb 5 ug/ml in monkey plasma
[11] = biological target: drug: a monoclonal antibody of human IgG4 isotype (PandA assay); assay: PandA assay, mAb 1 ug/ml in monkey plasma
[12] = biological target: drug: a monoclonal antibody of human IgG4 isotype (PandA assay); assay: PandA assay, mAb 0.5 ug/ml in monkey plasma
[13] = biological target: drug: a monoclonal antibody of human IgG4 isotype (PandA assay); assay: PandA assay, signal to noise against the negative control
[14] = biological target: drug: a monoclonal antibody of human IgG4 isotype (PandA assay); assay: PandA assay, mAb 0.75 ug/ml in monkey plasma
[15] = biological target: humanized development candidate monoclonal antibody IgG4 (hIgG4); assay: Gyrolab, capture reagent, hIgG4 1000 ng/ml, against the blank
[16] = biological target: humanized development candidate monoclonal antibody IgG4 (hIgG4); assay: Gyrolab, capture reagent, hIgG4 8 ng/ml, against the blank
[17] = biological target: humanized development candidate monoclonal antibody IgG4 (hIgG4); assay: Gyrolab, capture reagent, hIgG4 200 ng/ml, against the blank
[18] = biological target: humanized development candidate monoclonal antibody IgG4 (hIgG4); assay: Gyrolab, capture reagent, hIgG4 40 ng/ml
[19] = biological target: humanized development candidate monoclonal antibody IgG4 (hIgG4); assay: Gyrolab, capture reagent, hIgG4 1.6 ng/ml
[20] = biological target: humanized development candidate monoclonal antibody IgG4 (hIgG4); assay: Gyrolab, capture reagent, hIgG4 0.32 ng/ml
[21] = biological target: humanized development candidate monoclonal antibody IgG4 (hIgG4); assay: Gyrolab, capture reagent, hIgG4 0.32 ng/ml, against the blank
[22] = biological target: humanized development candidate monoclonal antibody IgG4 (hIgG4); assay: Gyrolab, capture reagent, hIgG4 1.6 ng/ml, against the blank
[23] = biological target: humanized development candidate monoclonal antibody IgG4 (hIgG4); assay: Gyrolab, capture reagent, hIgG4 1000 ng/ml
[24] = biological target: humanized development candidate monoclonal antibody IgG4 (hIgG4); assay: Gyrolab, capture reagent, hIgG4 5000 ng/ml, against the blank
[25] = biological target: humanized development candidate monoclonal antibody IgG4 (hIgG4); assay: Gyrolab, capture reagent, hIgG4 40 ng/ml, against the blank
[26] = biological target: humanized development candidate monoclonal antibody IgG4 (hIgG4); assay: Gyrolab, capture reagent, hIgG4 5000 ng/ml
[27] = biological target: humanized development candidate monoclonal antibody IgG4 (hIgG4); assay: Gyrolab, capture reagent, hIgG4 200 ng/ml
[28] = biological target: humanized development candidate monoclonal antibody IgG4 (hIgG4); assay: Gyrolab, capture reagent, hIgG4 8 ng/ml

## mouse anti-human IgG monoclonal antibody MCA5748G (Bio-Rad)
[1]
  Av. Resp.: 18.4
[2]
  Av. Resp.: 283
[3]
  Av. Resp.: 33.8
[4]
  Av. Resp.: 14.2
[5]
  Av. Resp.: 214
[6]
  Av. Resp.: 86.7
[7]
  Av. Resp.: 13.6
[8]
  Kd: 1.57 nM
[9]
  Kd: 1.82 nM

## mouse anti-Fc monoclonal antibody clone JDC-10 (Southern Biotech, Cat. No. 9040-01)
[10]
  ECL Signal: 756
[11]
  ECL Signal: 182
[12]
  ECL Signal: 130
[13]
  S/N: 1.37
[14]
  ECL Signal: 148

## Gyrolab generic PK assay capture reagent
[15]
  S/B: 59
[16]
  S/B: 2.1
[17]
  S/B: 20.8
[18]
  Av. Resp.: 26.1
[19]
  Av. Resp.: 5.3
[20]
  Av. Resp.: 4.6
[21]
  S/B: 1
[22]
  S/B: 1.2
[23]
  Av. Resp.: 267
[24]
  S/B: 103
[25]
  S/B: 5.7
[26]
  Av. Resp.: 468
[27]
  Av. Resp.: 94.1
[28]
  Av. Resp.: 9.3
